The target in one assay is T1, Aβ1-42 (UniProt P05067 672-713).
T1 construct: domain: Aβ1-42; Sample loaded on the Tricine SDS-PAGE gel for the Western blot (20 μg per lane); also called Aβ 42; 合成的Aβ多肽
The assay is described as follows: Western blot, 20 μg Aβ1-42 per lane on PVDF, purified scFv 1:5, detection with anti-c-myc antibody and HRP goat anti-mouse IgG.

The target in another assay is T2, BSA (UniProt P02769 25-607).
T2 construct: Control protein in the Western blot
The assay can be described thus: Western blot, 20 μg BSA per lane, purified scFv 1:5, detection with anti-c-myc antibody.

B1: E3单链抗体 (抗Aβ可溶性单链抗体) (scFv)
scFv: QVQLQESGPGLVKPSETLSLTCAVSGYSISSGYYWGWIRQPPGKGLEWIGSIYHSGSTYYNPSLKSRVTISVDTSKNQFSLKLSSVTAADTAVYYCARDLGSSVSWGQGTLVTVSSGGGGSGGGGSGGSALDIQMTQSPSSLSASVGDRVTISCRMSQGISNYLAWYQQKPGKVPKLLIYAASTLQSGVPSRFSGSGSGTDFTLTISSLQPEDVATYYCQKYNSALVTFGQGTKLEIKR
notes: Soluble scFv expressed in E. coli HB2151, purified on His-Trap, about 31 kD; also called E3scFv; E3 scFv; not shown: C-terminal tags of the pHEN2 vector, implied by His-Trap purification and detect
In the case of B1, the binding result is reported as “binds” with Aβ1-42 and “no binding” with BSA.

The record behind these values is patent CN1803842A (UNIV NANJING MEDICAL, dated 2006).
